Source: patent US7026443

Molecular target: HLA-A*6802 (human)
Experiment: competition with 125I-labelled standard peptide on purified HLA, gel filtration

HPV16 E7 86 TLGIVCPI (peptide)
binding affinity ratio (IC50 of standard peptide / IC50 of test peptide): 0.0047
